Assay results from the supplement of paper PMC7125110.
± gives the standard error. This sample holds only a part of the variants without activity.

B1: glmS ribozyme (parent)
chain: AUAAAAGCGCCAGAACUACAGAAAUGUAGUUGACGAGGAGGAGGUUUAUCGAAUUUUCGGCGGAUGCCUCCAAA

Variants of: B1
Experiment: self-cleavage kobs at 2500 uM GlcN6P; higher = faster cleavage; RNA array
Conditions: with glucosamine-6-phosphate
Procedure, shortened: (§1)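 Glucosamine-6-phosphate (40 μM to 10 mM) in HEPES/KCl/Mg(OAc)2 buffer was flowed over sequenced MiSeq chips, and tiles were imaged over ~14 h. Barcoded ribozyme variants there had been transcribed in situ by E. coli RNA polymerase and were tracked through a hybridised Cy3 probe at 37 °C. One- or two-exponential decay fits to per-tile medians, normalised to baseline and to non-cleaving reference variants, gave kobs. kcat and KM came from weighted Michaelis–Menten fits across concentrations.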

| Variant | self-cleavage kobs at 2500 uM GlcN6P [s⁻¹] |
| --- | --- |
| AUAAAAGCGCCAGAACUACAGAAAUGUAGUCGACGAGAAAGAGGUUUAUCGAAUUUUCGGCGGAUGCCUCCAAA [U31C G38A G40A] | < 1e-05 |
| AUAAAAGCGCCAGAACUACAGAAAUGUAGUCGACGAGGAUGAGGUUUGUCGAAUUUUCGGUGGAUGCCUCCAAA [U31C G40U A48G C61U] | < 1e-05 |
| AUAAAAGCGCCAGAACUACAGAAAUGUAGUGGACGAGGAGGAGGUUUAGCGAAUUUUCCGCGGAUGCCUCCAAA [U31G U49G G59C] | < 1e-05 |
| AUAAAAGCGCCAGAACUACAGAAAUGUAGUAAACGAGGAGGAGGUUUAUCGAAUUUUCGGCGGGUGCCUCCAAA [U31A G32A A64G] | 0.000169 ± 4.6e-05 |
| AUAAAAGCGCCAGAACUACAGAAAUGUAGUCGACGAGGAGGAGGUUUACCGAAUUUUCGGCGGAGGCCUCCAAA [U31C U49C U65G] | < 1e-05 |
| AUAAAAGCGCCAGAACUACAGAAAUGUAGUCGACGAGGAGGAGGUUUAUCGAAUAUUCGGCGCAUGCCGCCAAA [U31C U55A G63C U69G] | 0.000106 ± 3.8e-05 |
| AUAAAAGCGCCAGAACUACAGAAAUGUAGUGGACGAGGAGGAGGUUUAUCGAAUUUUCGGCGGAUGCGUGCAAA [U31G C68G C70G] | < 1e-05 |
| AUAAAAGCGCCAGAACUACAGAAAUGUAGUGGAGGAGGAGGAGGUUUAUCGAAUUUUCGGCGGGUGGCUCCAAA [U31G C34G A64G C67G] | < 1e-05 |
| AUAAAAGCGCCAGAACUACAGAAAUGUAGUCGACGCGGAGGAGGUUUAUCGAAUUUUCGGCGUAUGCAUCCAAA [U31C A36C G63U C68A] | 0.000118 ± 4e-05 |
| AUAAAAGCGCCAGAACUACAGAAAUGUAGUGACCGAGGAGAAGGUUUGUCGAAUUUUCGGCGGAUGCCUCCAAA [U31G G32A A33C G41A A48G] | < 1e-05 |
| AUAAAAGCGCCAGAACUACAGAAAUGUAGUCCACGAUGAGCAGGUAUAUCGAUUAUUCGGCGGCUGCCUCCAAA [U31C G32C G37U G41C U46A A53U U55A A64C] | < 1e-05 |
| AUAAAAGCGCCAGAACUACAGAAAUGUAGUCGACGGGGAGAAGGUUUAUCGAAUUUUCGUCGGAUGCCUCCAAA [U31C A36G G41A G60U] | < 1e-05 |
| AUAAAAGCGCCAGAACUACAGAAAUGUAGUCGACGAGUAGGAGGUUUAUCGAUUUUUCGGCGGAUGCCUCCAAA [U31C G38U A53U] | < 1e-05 |
| AUAAAAGCGCCAGAACUACAGAAAUGUAGUCGACGAGGAGGAGGUUUAUCGAAUUUUAGGUGGUUGCCUCCAAA [U31C C58A C61U A64U] | < 1e-05 |
| AUAAAAGCGCCAGAACUACAGAAAUGUAGUAGACGAGGAGGAGGUUUAUCGAAUUUUCGGCGGAUGCCUACAAA [U31A C70A] | 5.68e-05 ± 1.7e-05 |
| AUAAAAGCGCCAGAACUACAGAAAUGUAGUGGACGAGGAGGAGGUUUAUCGAAUUUUCGGCGGAUGCCUCCGAA [U31G A72G] | 0.00235 ± 0.00096 |

| Variant | self-cleavage kobs at 2500 uM GlcN6P [s⁻¹] |
| --- | --- |
| AUAAAAGCGCCAGAACUACAGAAAUGUAGUCGACGAGGAUGAGGUGUAUCGAAUUUUCGGCGGAUGCCUCCAAA [U31C G40U U46G] | 3.61e-05 ± 1.5e-05 |
| AUAAAAGCGCCAGAACUACAGAAAUGUAGUCGACGAGGAGGAGGUUUAUCGAAUUAUCGGCGGAUGUCUCCAAA [U31C U56A C67U] | 0.000427 ± 0.00012 |
| AUAAAAGCGCCAGAACUACAGAAAUGUAGUGGACGAAGAGGAGGUUUAUCGAAUUUUCGGCGGAUGUCUCCAAA [U31G G37A C67U] | 5.28e-05 ± 1.6e-05 |
| AUAAAAGCGCCAGAACUACAGAAAUGUAGUCGAAGACGAGGAGGUUUAUCGAAUUUUCGGCGGAUGCCUCCAAA [U31C C34A G37C] | < 1e-05 |
| AUAAAAGCGCCAGAACUACAGAAAUGUAGUAGACGAGGAGGAGGUUUAGCGAAUUUUCGGCGGAUGCCUCCAAA [U31A U49G] | 0.000183 ± 3.1e-05 |
| AUAAAAGCGCCAGAACUACAGAAAUGUAGUUAACGAGGAGGAGGUUUAUGGAAUUUUCGGCGGAUGCCUCUAAA [G32A C50G C71U] | 0.000168 ± 7.3e-05 |
| AUAAAAGCGCCAGAACUACAGAAAUGUAGUCGACGAGUAGGAGGUUUAUCGAAUUUUCGGCGGAUUCCUCCAAA [U31C G38U G66U] | < 1e-05 |
| AUAAAAGCGCCAGAACUACAGAAAUGUAGUUAACGAGGAGGAGGUUUAUCGAUUUAUCGGCGGAUGCCUCUAAA [G32A A53U U56A C71U] | 4.22e-05 ± 1e-05 |
| AUAAAAGCGCCAGAACUACAGAAAUGUAGUGGACGAGCAGGAGAUUUAUCGAAUUUUCGGCGGAUGCCUCCAAA [U31G G38C G44A] | < 1e-05 |
| AUAAAAGCGCCAGAACUACAGAAAUGUAGUCGACGAGGAGGAGGUUUAUCGACUCUUCGGCGGAUGCCUCCAAA [U31C A53C U55C] | 0.000164 ± 5e-05 |
| AUAAAAGCGCCAGAACUACAGAAAUGUAGUGGUCGAGGAGGAGGUUUAUCGAAUUUUCGGCGGAUGCGUCCAAA [U31G A33U C68G] | < 1e-05 |
| AUAAAAGCGCCAGAACUACAGAAAUGUAGUCGACAAGGAGGAGGUUUAUCGAAUUUUCGGCGGAUUCCUCAAAA [U31C G35A G66U C71A] | < 1e-05 |
| AUAAAAGCGCCAGAACUACAGAAAUGUAGUCGACGAGGAGGAGGUUUGUCGAAUUUUCGGCGCAUGUCUCCAAA [U31C A48G G63C C67U] | < 1e-05 |
| AUAAAAGCGCCAGAACUACAGAAAUGUAGUCGACAAGGAGGAGGUUUCUCGAAUUUUCGGCGGAUGCCUCCAAA [U31C G35A A48C] | < 1e-05 |
| AUAAAAGCGCCAGAACUACAGAAAUGUAGUAUACGAGGAGGAGGGUUAUCGAAUUUUCGGCGGAUGCCUCCAAA [U31A G32U U45G] | 0.000148 ± 5.6e-05 |
| AUAAAAGCGCCAGAACUACAGAAAUGUAGUCGACGAGGAGGAGGUUUAUCGAAUUUUCAGCGGAUUCCUCCAAA [U31C G59A G66U] | < 1e-05 |

Variants of: B1
Experiment: self-cleavage kobs at 10000 uM GlcN6P; higher = faster cleavage; RNA array
Conditions: with glucosamine-6-phosphate
Procedure, shortened: as §1

| Variant | self-cleavage kobs at 10000 uM GlcN6P [s⁻¹] |
| --- | --- |
| AUAAAAGCGCCAGAACUACAGAAAUGUAGUAGACGAGGAGGAGGUUUAUCGAAUUUUCGGCGGAUGCCUACAAA [U31A C70A] | 0.000146 ± 3e-05 |
| AUAAAAGCGCCAGAACUACAGAAAUGUAGUGGACGAGGAGGAGGUUUAUCGAAUUUUCGGCGGAUGCCUCCGAA [U31G A72G] | 0.00988 ± 0.0032 |
| AUAAAAGCGCCAGAACUACAGAAAUGUAGUCGACGAGGAGGAGGUUUAUCGAAUUAUCGGCGGAUGUCUCCAAA [U31C U56A C67U] | 0.000671 ± 0.00015 |
| AUAAAAGCGCCAGAACUACAGAAAUGUAGUGGACGAAGAGGAGGUUUAUCGAAUUUUCGGCGGAUGUCUCCAAA [U31G G37A C67U] | 0.000189 ± 3.7e-05 |
| AUAAAAGCGCCAGAACUACAGAAAUGUAGUAGACGAGGAGGAGGUUUAGCGAAUUUUCGGCGGAUGCCUCCAAA [U31A U49G] | 0.000277 ± 4.5e-05 |
